Laboratory results reported in patent publication US20140223606, “COMPOSITIONS AND METHODS COMPRISING SEQUENCES HAVING MEGANUCLEASE ACTIVITY” (PIONEER HI BRED INTERNATIONAL INC, published 2014).

Key:
Assay in all cases: cell_activity; yeast 30 C; 22 C: 4
Settings in all cases: tags: NLS, 6xHis
[1] = molecular target: T1, LIG3-4(B70) (artificial)
T1 chain: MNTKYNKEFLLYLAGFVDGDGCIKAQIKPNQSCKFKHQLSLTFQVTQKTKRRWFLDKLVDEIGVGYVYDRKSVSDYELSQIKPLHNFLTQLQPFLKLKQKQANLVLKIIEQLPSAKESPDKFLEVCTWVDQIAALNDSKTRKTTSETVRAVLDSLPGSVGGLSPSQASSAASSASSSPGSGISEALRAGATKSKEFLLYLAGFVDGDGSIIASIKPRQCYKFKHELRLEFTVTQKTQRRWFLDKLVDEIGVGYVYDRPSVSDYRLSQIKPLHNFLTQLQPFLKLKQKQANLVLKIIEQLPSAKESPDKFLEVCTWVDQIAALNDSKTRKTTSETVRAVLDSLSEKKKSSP
Method: (§1) A 3 mL culture of selective media (MP Biomedical) was inoculated with a single colony of the yeast screening strain and grown at 30° C. overnight. On the following day, a 50 ml YPD culture (MP Biomedical) was started with 2 ml of the overnight culture and grown at 30° C. overnight. On the following day, the cells were harvested by centrifugation at 4000 rpm. The cells were resuspended in 100 ml ice cold water and centrifuged again. The cells were then washed in 1.2 M sorbitol, followed by treatment with 2 ml of 10 mM Tris pH 8.0, 1 mM EDTA, 100 mM Lithium acetate, 10 mM DTT, 0.6M sorbitol for 30 minutes at 30° C. with shaking. The cells were recovered by centrifugation, washed in 40 ml 1.2M sorbitol and finally resuspended in 250 microliters of 1.2M sorbitol. 50 microliter aliquots were transferred to test tubes on ice. Up to 5 microliters of DNA (100-500 nanograms) were added. The suspension was transferred to a 0.2 cm electroporation cuvette, on ice. Electroporation was performed with a pulse charge at 1.5 kV, 200 ohms, 25 microF (pulse time of 5 milliseconds). 1 mL YPD media (MP Biomedical) was added and the cells were allowed to recover at 30° C. for 1-2 hr. The cells were centrifuged, resuspended in 100 uL 1M sorbitol and plated on selective media lacking leucine and containing 2% galactose. The resulting yeast colonies were incubated at various temperatures ranging from 22 to 37 degrees Celsius for 7-10 days. I-CreI and meganucleases derived from it have maximal activity at or above 37 degrees Celsius. Screening was performed at a range of temperatures from 22 to 37 degrees in order to observe increases in activity at lower temperatures which are relevant to certain biological systems (eg. plant cells, plant cell cultures, etc). At that time the red/white sectoring phenotype, indicative of meganuclease activity was observed. Colonies with increased white sectoring over the parental meganuclease (indicating colonies expressing a meganuclease with increased meganuclease activity), also referred to as “hits” and sometimes completely white, were isolated for further analysis.

[2] = molecular target: T2, LIG3-4(B73) (artificial)
T2 chain: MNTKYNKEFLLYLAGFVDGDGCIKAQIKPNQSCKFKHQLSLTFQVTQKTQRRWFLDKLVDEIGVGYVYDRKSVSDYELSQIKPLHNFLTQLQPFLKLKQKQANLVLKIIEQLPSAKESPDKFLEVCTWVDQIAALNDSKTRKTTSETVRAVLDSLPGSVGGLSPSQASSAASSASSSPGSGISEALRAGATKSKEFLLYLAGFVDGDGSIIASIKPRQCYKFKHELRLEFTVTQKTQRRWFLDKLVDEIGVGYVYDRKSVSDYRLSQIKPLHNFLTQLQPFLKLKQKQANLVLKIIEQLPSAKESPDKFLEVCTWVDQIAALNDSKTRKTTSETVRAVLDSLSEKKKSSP
Method: as §1

[3] = molecular target: T3, LIG3-4(B82) (artificial)
T3 chain: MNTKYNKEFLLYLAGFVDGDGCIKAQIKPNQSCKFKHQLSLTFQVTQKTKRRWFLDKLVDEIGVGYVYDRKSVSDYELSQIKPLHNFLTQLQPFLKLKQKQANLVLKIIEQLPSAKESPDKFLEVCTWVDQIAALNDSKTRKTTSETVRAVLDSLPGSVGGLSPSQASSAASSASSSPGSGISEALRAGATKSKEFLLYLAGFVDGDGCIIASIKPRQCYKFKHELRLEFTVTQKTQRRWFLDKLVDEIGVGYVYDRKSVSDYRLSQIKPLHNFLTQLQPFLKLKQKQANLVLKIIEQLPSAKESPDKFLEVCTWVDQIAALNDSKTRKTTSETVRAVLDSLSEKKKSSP
Method: as §1

[4] = molecular target: T4, LIG3-4(B76) (artificial)
T4 chain: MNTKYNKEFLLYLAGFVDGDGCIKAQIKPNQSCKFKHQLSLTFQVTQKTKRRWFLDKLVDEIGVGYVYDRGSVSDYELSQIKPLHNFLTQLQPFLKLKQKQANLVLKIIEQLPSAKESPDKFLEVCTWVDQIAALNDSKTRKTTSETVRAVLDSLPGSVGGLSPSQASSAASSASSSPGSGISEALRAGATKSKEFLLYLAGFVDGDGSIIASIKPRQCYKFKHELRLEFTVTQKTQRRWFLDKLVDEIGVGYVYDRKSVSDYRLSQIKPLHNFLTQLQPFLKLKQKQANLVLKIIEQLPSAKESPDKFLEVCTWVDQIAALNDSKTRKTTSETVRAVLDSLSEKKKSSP
Method: as §1

[5] = molecular target: T5, LIG3-4(B75) (artificial)
T5 chain: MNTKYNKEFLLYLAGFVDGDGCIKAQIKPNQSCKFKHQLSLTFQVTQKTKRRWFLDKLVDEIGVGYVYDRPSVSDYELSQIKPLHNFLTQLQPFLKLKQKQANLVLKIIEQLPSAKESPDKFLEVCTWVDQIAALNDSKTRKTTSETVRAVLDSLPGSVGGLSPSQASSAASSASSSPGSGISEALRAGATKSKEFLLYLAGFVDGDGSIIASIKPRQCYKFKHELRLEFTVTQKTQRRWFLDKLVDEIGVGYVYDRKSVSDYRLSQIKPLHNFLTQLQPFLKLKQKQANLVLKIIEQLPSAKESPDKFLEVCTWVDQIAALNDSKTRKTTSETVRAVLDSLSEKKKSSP
Method: as §1

Measured: activity

B1: LIG3-4 recognition site (dsDNA)
DNA 1: ATATACCTCACACGTACGCGTA
DNA 2: TACGCGTACGTGTGAGGTATAT
4 score 0-4: all assays above
